IntAct's records for PubMed 18728196

B1: Anti-sigma factor RshA (Mycobacterium tuberculosis (strain ATCC 25618 / P9WJ69 (parent)
chain: MSENCGPTDAHADHDDSHGGMGCAEVIAEVWTLLDGECTPETRERLRRHLEACPGCLRHYGLEERIKALIGTKCRGDRAPEGLRERLRLEIRRTTIIRGGP

Variants of: B1
Conditions: with pstp_myctu pstP

Variant | effect of a mutation on the interaction
MSENCGPTDAHADHDDSHGGMGCAEVIAEVWTLLDGECTPETRERLRRHLEACPGCLRHYGLEERIKALIGTKCRGDRAPEGLRERLRLEIRRATIIRGGP [T94A] | disrupting interaction
